According to the RNAGym collection of RNA variant scans (doi:10.1073/pnas.2313332121):
For some assays here: This sample holds only a part of the variants without activity.

B1: TPR 5TU (parent)
chain: GGAUCUUCUCGAUCUAACAAAAAAGACAAAUCUGCCACAAAGCUUGAGAGCAUCUUCGGAUGCAGAGGCGGCAGCCUUCGGUGGCGCGAUAGCGCCAACGUUCUCAACUAUGACACGCAAAACGCGUGCUCCGUUGAAUGGAGUUUAUCAUG
B2: TPR t1 (parent)
chain: GACCAAUCUGCCCUCAGAGCUCGAGAACAUCUUCGGAUGCAGAGGAGGCAGGCUUCGGUGGCGCGAUAGCGCCAACGUCCUCAACCUCCAAUGCAUCCCACCACAUGAUGAUGCCUGAAGAGCCUUGGUUUUUUG

Variants of: B1
Assay: polymerase ribozyme fitness, log enrichment relative to wild type (log ratio); higher = more active; in vitro selection for triplet polymerase activity
How it was run: (§1)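 Streptavidin-bead capture of gel-excised extended constructs, followed by RT-PCR, closed a single triplicate in vitro selection round. That round began by annealing PCR-built, transcribed mutant libraries of each subunit of a heterodimeric triplet polymerase ribozyme with a biotinylated primer, the partner subunit and triplets, then incubating them frozen at −7 °C. After Illumina sequencing of inputs and outputs, genotypes needed ≥10 input reads and ≥1 read per output. Fitness is the base-2 logarithm of genotype enrichment over wild-type enrichment, using inverse-variance-weighted replicate averages.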

Variant | polymerase ribozyme fitness (log ratio)
A3C A12G G25C A52C C93U C116A | -3.91
A3C C18G U56A C57A C93G U146G | ≤ -4.2
A3C C10G A49C C54U A60U A91C G100A G136U U139C | ≤ -4.2
A3C A16G | -1.12
A3C C36G A60C G83U C118G U151C | ≤ -4.2
A3C C85U C96U | -0.556
A3C C63G C118U | -0.545
A3C C32U G59A | -3.67
A3C C18U A49U G62C A66C G67U C96A C99G U134C U145C A147C U151G | ≤ -4.2
A3C C14G A52C C93U G141U | -4.16
A3C A17U A26U C54A C75U C93U C103G G143C | ≤ -4.2
A3C C5U C43U G70C G84A A106U A113C | ≤ -4.2
A3C G46C A49G G92A U104G A113U G124A A142U | ≤ -4.2
A3C C43U U53A U61G U101G U139A | ≤ -4.2
A3C C43U A89U G92A C125G | ≤ -4.2
A3C A52C U55A C57A G81A G94C | -4.03
A3C C14U A16G G59A C87A | ≤ -4.2
A3C C36U G83A | -3.09
A3C C14G A39C G81U C96U C105U A121U U134C U135C U148C | ≤ -4.2
A3C C85A U130A C132G | ≤ -4.2
G1U | 0.22

Variant | polymerase ribozyme fitness (log ratio)
A3C A28G A37U A52U G83U | ≤ -4.2
A3C A16C G48A C96G | -3.42
A3C A49C C96A | ≤ -4.2
A3C A16G C99G U102G A106U | ≤ -4.2
A3C G58A C87U | -0.495
A3C A22U C85G | -2.18
A3C C8U C18U A49G C87A | ≤ -4.2
A3C C85U | -1.46
A3C C14A A26G G50C A91G G117A C125U G140A G143C | ≤ -4.2
A3C C57U U82G G84A U90A C93G C149U | ≤ -4.2
A3C C93A A98U | -1.79
A3C G58C C63U C95G | -1.68
A3C G34A C96G | -3.63
A3C A16U C54A C87U U104G G141C | ≤ -4.2
A3C C85U C95U C114U G133C | ≤ -4.2
A3C C27U C35G C57A G84A C87U | ≤ -4.2
A3C A24G C36U A41U C72U C85A A91U U151A G152C | ≤ -4.2
A3C A28U U77A C93U C129A U148G | ≤ -4.2
A3C C10A G11U U55A G81C C85U G128A | ≤ -4.2
A3C C10G G11U A47U G48A G58C U82G G83A A137U | ≤ -4.2
A3C C8U U61G G71C G80C C93A C125G U127C U145C G152U | ≤ -4.2

Variant | polymerase ribozyme fitness (log ratio)
A3C C8G C76U C87A A106U | ≤ -4.2
A3C A24G A73U C93A | ≤ -4.2
A3C A12U U56A C93A A98U A107G C129U | ≤ -4.2
A3C A41G G84A G126C | -0.499
A3C C10G C57A G83A | -3.78
A3C C69A C87G U146C C149U U151G | ≤ -4.2
A3C G50U | -1.07
A3C G48U C69U | -2.88
A3C C87G | -3.29
A3C A30U C93U A115G | ≤ -4.2
A3C C76U C96A | -0.525
A3C C10G A29U U33G C38U C63U | ≤ -4.2
A3C C35U C75A C129G | ≤ -4.2
A3C A20C C38U A41C U53A G71A C93A G94U G126C | ≤ -4.2
A3C G25A A40U G71A C85U C96U A119C A121G G140C | ≤ -4.2
A3C A23U U44A U45C C95U C105G A106C C123U A137G | ≤ -4.2
A3C A97U U135G G140C | ≤ -4.2
A3C A21C C35A C85U C125U | ≤ -4.2
A3C C85U G141C | -2.07
A3C A60G | -0.264
A3C A16U C93G C118U U130G | ≤ -4.2

Variants of: B2
Assay: as above
How it was run: as §1

Variant | polymerase ribozyme fitness (log ratio)
G128A U130G | -1.43
A121G G135U | 0.495
U112G U116A G117U A121G | 0.651
U112G G127A | -1.12
G120A U129G | -0.391
G120U U126G U132A | -0.734
C104A G120C G127A U129A | -2.25
U106A U112A | 0.701
G117C A121U | -3
G107A U112C | -3.85
U116C U129G U132C | -3.87
U112A U126A | 1.04
G113A U130A | -2.33
G113A U130C | -1.16
G120A C124A | 2.09
G128C U131A | -1.91
G110C C124A | -3.32
U112A C114A U133A | -1.04
A111G G122U U129C | -5.05
G122A C123G | 1.74
G122A C123U | 0.258
U131C | 0.237
U131G | -0.452
U131A | -0.123
A103U G120C C124U | -4.96
A108G U116A C123U | -6.42

Variant | polymerase ribozyme fitness (log ratio)
C115A G128A U130C | -0.444
G110C G122U | -4.38
C123A U125G | -0.261
U109A U116C | -7.07
G117U C124A | -0.212
U109G G113A G127C | -6.26
U116C U132C | -1.33
G113U C115A | -4.42
G117A A121U | 1.08
C114U C124A | -1.04
G113A C114A U125A U133A | -3.52
C104U U112G U116C | -1.98
G110A U132A | -1.37
G113A U131A | -0.84
A111C G122C | -1.39
A121G U133G | 1.55
U109G G113A | -5.72
G110U G120U | -2.75
U109A A111C C114A G117C | -6.37
G107A G113C | -5.82
G113C G122A G135U | -4.5
C114A U133A G135C | -1.08
U112G G113A U125C | -2.43
U112G C123A | -2
C104A U134G | -1.17
A108G G122U | -1.78

Variant | polymerase ribozyme fitness (log ratio)
U116A G120U | -1.5
U109G C115A | -7.19
C104U G117U U132A | -1.97
C104A G117C U131C | -4.93
C102U U106C G113A A121C U131G | -3.34
U106A G107U U116C | -7.47
G113U U116A | -4.64
A111U U112G G122A | -2.25
A103G U130A | -5.53
G110U G135U | -3.12
U112A A119G | 1.9
U106A G110U | -0.605
G117A U129G | -4.37
G110A A119C | -2.25
C124A U130A | 1.09
U106A G122A | -0.693
G113U A119C | -5.27
G113U A119G | -1.66
C115G | -1.59
C115U | -0.935
C115A | -0.202
G117C | -3.16
G117A | -1.1
G117U | -2.21
U116C A119G | 1.96
C114U A118G | -2.12

Variant | polymerase ribozyme fitness (log ratio)
G117A A119G | 1.29
G110A C115A | -1.87
G113A C123G C124A | -3.66
A121U C123U | 2.27
C104A C114G | -3.81
G120C U130A | 0.0796
C114A U131C | -1.66
A103U C123U | -3.47
G120C C124A | 1.02
C102U A121U | 0.0802
C104A G110U | -3.77
U109G C114G | -4.93
G110A G120U | -1.91
A103U U130A | -4.14
G110A G135U | -1.92
A103U C124G U131C | -2.6
A111G G120A | -0.416
A111C U133C | 1.26
G110U U125A | -0.916
A105G G120C | -1.97
A105G G120U | -2.44
A111C A119U U131C | 0.0159
U106C G107U | -4.63
G128U U130C | 0.0266
U106C C123G U133G | -1.72
A111C A119U | -2.28
